We go through three compounds from publication PMC6771245, “CMKLR1-targeting peptide tracers for PET/MR imaging of breast cancer” (Theranostics, 2019).

Series [1] has as its target T1, huCMKLR1 (Homo sapiens, UniProt Q99788).
T1 construct: expressed in transfected cells; host or cells: HEK293a (membrane preparations)
T1 sequence (Q99788 1-373): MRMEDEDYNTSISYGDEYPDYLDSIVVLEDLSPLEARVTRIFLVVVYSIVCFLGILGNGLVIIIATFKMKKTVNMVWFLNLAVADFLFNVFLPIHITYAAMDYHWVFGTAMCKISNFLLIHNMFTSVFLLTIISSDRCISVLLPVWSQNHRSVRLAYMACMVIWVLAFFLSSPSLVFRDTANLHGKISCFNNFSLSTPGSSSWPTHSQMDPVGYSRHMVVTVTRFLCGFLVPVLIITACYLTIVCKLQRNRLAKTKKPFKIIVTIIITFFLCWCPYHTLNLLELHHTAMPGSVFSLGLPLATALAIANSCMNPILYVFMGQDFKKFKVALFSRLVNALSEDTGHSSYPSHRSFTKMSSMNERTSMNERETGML
Description: Competitive radioligand binding with ^125I-chemerin-9, membranes of HEK293a cells stably expressing huCMKLR1 and Gα16. The settings on record: unlabeled compound; radioligand ^125I-chemerin-9, 5 µg membrane, 1 h 37 °C; three independent experiments, mean ± SD; read-out: competition binding IC50 w/o ^natGa. How it is done: (§1) For in vitro analysis, HEK293a stably transfected with huCMKLR1 and Gα16 were used. For the in vivo mouse model, the human breast cancer cell line DU4475 with endogenous CMKLR1 expression and the target-negative human lung carcinoma cell line A549 were used. All cell lines were obtained from ATCC/LGC Standards (Wesel, Germany) and were cultured in RPMI1640 medium containing 10% fetal bovine serum (both from Biochrom, Berlin, Germany) and, in case of transfected cells, selection agents G418 (Biochrom, Berlin, Germany) and zeocin (Invitrogen, Carlsbad, USA).
Competitive binding studies were performed with cell membrane preparations. […] […].
(§2) All statistical analyses were performed using GraphPad Prism 5.04. EC50/IC50 values were determined by nonlinear sigmoidal curve fitting with variable slope setting, and normalized response for competitive binding results. Multiple group comparisons were done by a two-way ANOVA and Bonferroni post hoc test. All presented data are based on independent experiments. Normalizations and statistics are further defined in each figure legend.

Series [2] addresses T1, huCMKLR1. The series can be described thus: Calcium mobilization assay. The format is cell-based. Conditions: HEK293a huCMKLR1 Gα16 cells, Fluo-4 AM; three independent experiments, mean ± SD; read-out: Ca^2+ assay EC50. The procedure:
as §1
Optical ViewPlate 96-well microplates (PerkinElmer, Waltham, USA) were coated with poly-D-lysine (10 µg/mL, 50 µL/well) for 30 minutes at 37 °C, washed with PBS and air dried before seeding 40,000 HEK293a huCMKLR1 Gα16 cells per well. The next day, cells were starved with serum-free medium for 30 minutes and incubated with loading medium consisting of serum-free medium with 2.5 mM probenicid (Sigma-Aldrich, St. Louis, USA) and 2 µM Fluo-4 AM (Thermo Fisher Scientific, Waltham, USA). After a loading time of 45 minutes, cells were washed with 100 μL C1 buffer (130 mM NaCl, 5 mM KCl, 10 mM 4-(2-hydroxyethyl)-1-piperazineethanesulfonic acid [HEPES], 2 mM CaCl2, 10 mM glucose) followed by 20 minutes of incubation in the dark. After another washing and incubation cycle, the cell plate was placed into the CellLux Calcium Imaging System (PerkinElmer, Waltham, USA) and the assay was performed automatically according to the following protocol. After a baseline measurement for 30 seconds, the ligands (prepared in C1 buffer with 0.5% BSA in double concentration and pipetted in a U-bottom plate) were added on top of the cells and the fluorescence intensity was recorded for further 60 seconds. Obtained raw data were analyzed using AssayPro (PerkinElmer, Waltham, USA). After spatial uniformity correction, maximum response values (F) were normalized to baseline values (F0) of each well using the following equation:
response = ΔF/F0 = (F - F0)/F0.
as §2
(Calcium flux is commonly read through the fluorescence of an indicator in the cells.)

A further series in a line: in vivo. The settings on record: female, mouse, iv, 10 MBq, total radioactivity. An excerpt: (§3) For in vivo experiments, at least 8-week-old female athymic NMRI-Foxn1^nu /Foxn1^nu mice (Janvier Labs, Saint-Berthevin, France) were used. Animal care followed institutional guidelines and all experiments were approved by local animal research authorities. For the generation of tumor xenografts, 5 x 10^6 cells of both DU4475 and A549 cells were inoculated subcutaneously into the right and left shoulder, respectively (1:1 phosphate-buffered saline [PBS]/Matrigel Basement Membrane Matrix High Concentration, Corning, Corning, USA). Part of the animals received SW13 lung cancer cells as a CMKLR1-negative control tumor. For the analysis of biodistribution, only data of […] and A549 xenograft tumors are used. Tumors were allowed to grow for two to four weeks (tumor volume > 100 mm^3) after cell inoculation.
(§4) Radiolabeling experiments were performed on a Modular Lab PharmTracer synthesis module (Eckert & Ziegler, Berlin, Germany) which allows fully automated cassette-based labeling of gallium tracers utilizing a pharmaceutical grade ^68Ge/^68Ga generator (GalliaPharm, 1.85 GBq, good manufacturing practice [GMP]-certified; Eckert & Ziegler GmbH, Berlin, Germany). Cassettes were GMP-certified and sterile. They were used without pre-conditioning of the cartridges. The gallium generator was eluted with aqueous HCl (0.1 M, 7 mL) and the eluate was purified on an ion-exchange cartridge followed by elution using 1 mL of 0.1 M HCl in acetone. The peptide-DOTA conjugate (50 µg from a stock solution 1 mg/mL in 10% dimethyl sulfoxide [DMSO] in water) was mixed with 500 µL 0.1 M HEPES buffer (pH 7) and heated for 500 seconds at 95 °C. After the reaction, the mixture was passed through a C-18 cartridge for purification and the tracer was eluted from the cartridge with ethanol. In order to control the quality of radiolabeling, the radiochemical yield, purity, and specific activity for all five peptide-DOTA conjugates and each individual labeling experiment was determined. Overall, a radiochemical yield of 82.1% ± 6.7%, a radiochemical purity of 98.1 ± 4.6% and a molar activity of 8.6 GBq/µmol ± 2.7 GBq/µmol was achieved (Table S1). Before animal injection, the activity was equilibrated to neutral pH using 1 M sodium hydrogen carbonate. It was further diluted with saline to ≤ 10% ethanol.
(§5) Tumor-bearing mice were injected with approximately 10 MBq of ^68Ga-labeled DOTA-peptide or 1 MBq of ^177Lu-labeled DOTA-peptide to the tail vein via a catheter. Mice were sacrificed and dissected one or two hours after injection. Tumor, blood, stomach, pancreas, small intestine, colon, liver, spleen, kidney, heart, lung, muscle and femur samples were weighed and uptake of radioactivity was measured by a gamma counter. To determine the effect of unlabeled ligand on the tumor uptake, 200 nmol CG34 peptide (100-fold excess) was co-injected.

Series [3] concerns DU4475/A549 xenograft model. The series can be described thus: in vivo. The settings on record: mouse.
From the text: as §3, §4, §5

Setting [4] is: athymic NMRI-Foxn1^nu/Foxn1^nu, DU4475 tumor uptake.
[5] abbreviates: athymic NMRI-Foxn1^nu/Foxn1^nu, blood uptake.
The mark [6] stands for this setting: athymic NMRI-Foxn1^nu/Foxn1^nu, heart uptake.
The mark [7] stands for this setting: athymic NMRI-Foxn1^nu/Foxn1^nu, kidney uptake.
Setting [8] is: athymic NMRI-Foxn1^nu/Foxn1^nu, liver uptake.
The mark [9] stands for this setting: athymic NMRI-Foxn1^nu/Foxn1^nu, lung uptake.
Setting [10] is: athymic NMRI-Foxn1nu/Foxn1nu, colon uptake.
Where [11] appears, read: athymic NMRI-Foxn1nu/Foxn1nu, femur uptake.
The mark [12] stands for this setting: athymic NMRI-Foxn1nu/Foxn1nu, pancreas uptake.
Setting [13] is: athymic NMRI-Foxn1nu/Foxn1nu, small intestine uptake.
[14] abbreviates: athymic NMRI-Foxn1nu/Foxn1nu, stomach uptake.
Setting [15] is: athymic NMRI-Foxn1nu/Foxn1nu, tumor-to-blood ratio.
[16] abbreviates: athymic NMRI-Foxn1nu/Foxn1nu, tumor-to-kidney ratio.
The mark [17] stands for this setting: athymic NMRI-Foxn1nu/Foxn1nu, tumor-to-liver ratio.
Where [18] appears, read: athymic NMRI-Foxn1nu/Foxn1nu, tumor-to-muscle ratio.
The mark [19] stands for this setting: athymic NMRI-Foxn1nu/Foxn1nu, tumor-to-pancreas ratio.

Where a SMILES comes first, the peptide text is derived from it. [ ]: non-standard residue; d: D form. The star is where a group is joined. DOTA = O=C(O)CN1CCN(CC(=O)O)CCN(CC(=O)*)CCN(CC(=O)O)CC1; Hyp = O=C(O)[C@@H]1C[C@@H](O)CN1; Tic = O=C(O)[C@@H]1Cc2ccccc2CN1; Cha = N[C@@H](CC1CCCCC1)C(=O)O; Cit = NC(=O)NCCC[C@H](N)C(=O)O; Ahx = NCCCCCC(=O)O

Usually EC50 stands for the concentration giving half of the maximal effect. Consider `CSCC[C@H](NC(=O)CNC(=O)[C@@H]1CCCN1C(=O)[C@H](CC1CCCCC1)NC(=O)[C@@H](N)Cc1ccc(O)cc1)C(=O)N[C@@H](Cc1ccc(O)cc1)C(=O)N[C@@H](C)C(=O)N[C@@H](Cc1ccccc1)C(=O)N[C@H](Cc1ccccc1)C(=O)O` [CG36] (H-Y[Cha]PGMYAF[dF]-OH), for which the IC50 on huCMKLR1 [1] amounted to 0.1 nM. Besides, at huCMKLR1 [2], the half-maximal effective concentration (EC50) came to 0.9 nM.

For orientation: tissue uptake means the percentage of the injected dose found per gram of tissue. Regarding `C[C@@H](NC(=O)[C@H](Cc1ccccc1)NC(=O)[C@H](CCCNC(N)=O)NC(=O)CNC(=O)[C@@H]1C[C@@H](O)CN1C(=O)[C@H](CC1CCCCC1)NC(=O)[C@H](Cc1ccc(O)cc1)NC(=O)CCCCCNC(=O)CN1CCN(CC(=O)O)CCN(CC(=O)O)CCN(CC(=O)O)CC1)C(=O)N1Cc2ccccc2C[C@H]1C(=O)N[C@@H](CO)C(=O)O` [[^68Ga]Ga-DOTA-AHX-CG34, metal not drawn] ({DOTA-Ahx}-Y[Cha][Hyp]G[Cit]F[dA][Tic]S-OH), the tissue uptake at 1 h came to 3 %ID/g in the series “in vivo” (athymic NMRI-Foxn1^nu/Foxn1^nu, A549 tumor uptake); 5.1 %ID/g in “in vivo” (setting [4]); 1.2 %ID/g in “in vivo” (setting [5]); 1.2 %ID/g in the series “in vivo” (setting [6]); 6.5 %ID/g in the series “in vivo” (setting [7]); 2.4 %ID/g in “in vivo” (setting [8]). Further, the tissue uptake at 1 h in the series “in vivo” (setting [9]) came to 4.2 %ID/g; in “in vivo” (athymic NMRI-Foxn1^nu/Foxn1^nu, muscle uptake), 0.7 %ID/g; in “in vivo” (athymic NMRI-Foxn1^nu/Foxn1^nu, spleen uptake) it was 6.3 %ID/g; in “in vivo” (setting [10]), 2.7 %ID/g; in “in vivo” (setting [11]), 0.8 %ID/g; in “in vivo” (setting [12]), 1 %ID/g. The tissue uptake at 1 h was found to be 2.1 %ID/g in “in vivo” (setting [13]) and 1.7 %ID/g in “in vivo” (setting [14]). Besides, the tissue uptake at 2 h came to 4.9 %ID/g in the series “in vivo” (setting [4]); 0.4 %ID/g in the series “in vivo” (setting [5]); 1.1 %ID/g in the series “in vivo” (setting [6]); 6.6 %ID/g in the series “in vivo” (setting [7]); 2.4 %ID/g in the series “in vivo” (setting [8]); 2.8 %ID/g in the series “in vivo” (setting [9]). Besides, the tissue uptake at 2 h in the series “in vivo” (athymic NMRI-Foxn1nu/Foxn1nu, A549 tumor uptake) amounted to 1.4 %ID/g; in the series “in vivo” (setting [10]), 2.6 %ID/g; in “in vivo” (setting [11]), 0.7 %ID/g; in “in vivo” (athymic NMRI-Foxn1nu/Foxn1nu, muscle uptake) it was 0.5 %ID/g; in the series “in vivo” (setting [12]), 0.8 %ID/g; in the series “in vivo” (setting [13]) it was 2 %ID/g. Further, the tissue uptake at 2 h was determined as 5 %ID/g in the series “in vivo” (athymic NMRI-Foxn1nu/Foxn1nu, spleen uptake) and 1.3 %ID/g in “in vivo” (setting [14]). The tissue to tissue ratio at 1 h in the series “in vivo” (setting [15]) is 5.9; in the series “in vivo” (setting [16]), 0.9; in the series “in vivo” (setting [17]), 2.3; in the series “in vivo” (setting [18]), 8.5; in “in vivo” (setting [19]) it was 5.6. In addition, the tissue to tissue ratio at 2 h in the series “in vivo” (setting [15]) was found to be 13.3; in “in vivo” (setting [16]), 0.7; in the series “in vivo” (setting [17]), 2.2; in the series “in vivo” (setting [18]), 11.4; in the series “in vivo” (setting [19]), 6.2. For the same compound, the “DU4475 tumor uptake after two hours as % of the 1 h-value” in series [3] is recorded as “approx. 96%”. In addition, the “higher uptake in CMKLR1-positive DU4475 tumors than in target-negative A549 tumors” value in series [3] is 1.7 fold.

Turning to `C[C@@H](NC(=O)[C@H](Cc1ccccc1)NC(=O)[C@H](CCCNC(N)=O)NC(=O)CNC(=O)[C@@H]1C[C@@H](O)CN1C(=O)[C@H](CC1CCCCC1)NC(=O)[C@@H](N)Cc1ccc(O)cc1)C(=O)N1Cc2ccccc2C[C@H]1C(=O)N[C@@H](CO)C(=O)O` [CG34] (H-Y[Cha][Hyp]G[Cit]F[dA][Tic]S-OH), the IC50 on huCMKLR1 [1] came out at 1 nM. Also, at huCMKLR1 [2], the EC50 worked out at 0.4 nM.
